Drawing on US20130058935A1 (INSTITUTE FOR CANCER RESEARCH, published 2013), this text covers Kd for 1 molecule.

For this assay, the target named is T1, mouse TEM7R extracellular domain, 6xHis-tagged, secreted (mouse, UniProt Q9DC11 31-455).
T1 construct: extracellular domain; also called mTEM7R ECD; TEM7R ECD; not shown: 6xHis tag from the pSecTag2/Hygro A vector
The assay is described as follows: SPR (BIAcore), ECD immobilised on CM5 chip, 1:1 Langmuir fit. As for the experimental part: scFvs were expressed in E. coli and purified by sequential IMAC and size exclusion chromatography (Robinson, M K et al. (2005) Cancer Research 65:1471-8). Binding of the TEM7R scFv, to extracellular domain (ECDs) was characterized by SPR using TEM7R ECD as the target antigen (Yuan, Q A et al. (2006) Mol. Cancer Ther. 5:2096-105). ECD was diluted to 10 μg/mL in 10 mM sodium acetate pH 5.2 and approximately 200 RU of ECD were immobilized onto CM5 sensor chips via NHS-ester chemistry.
Kinetic constants for A5 were determined by passing serially diluted samples (0 nM to 2 μM) over flow cells at flow rate of 40 μL/min. Response against an ErbB2 coated flow cell was used as a negative control and subtracted from the response generated against the TEM7R ECD to obtain the final sensorgrams. Data was evaluated using BIAEvaluation 3.2 software (BIAcore, Piscataway, N.J.) and fit using the 1:1 Langmuir binding model. Flow cells were regenerated by sequential 15-second pulses with 10 mM glycine, pH 2 and 50 mM Triethylamine, pH 10 followed by equilibration with PBS running buffer.

T1 sequence (Q9DC11 31-455): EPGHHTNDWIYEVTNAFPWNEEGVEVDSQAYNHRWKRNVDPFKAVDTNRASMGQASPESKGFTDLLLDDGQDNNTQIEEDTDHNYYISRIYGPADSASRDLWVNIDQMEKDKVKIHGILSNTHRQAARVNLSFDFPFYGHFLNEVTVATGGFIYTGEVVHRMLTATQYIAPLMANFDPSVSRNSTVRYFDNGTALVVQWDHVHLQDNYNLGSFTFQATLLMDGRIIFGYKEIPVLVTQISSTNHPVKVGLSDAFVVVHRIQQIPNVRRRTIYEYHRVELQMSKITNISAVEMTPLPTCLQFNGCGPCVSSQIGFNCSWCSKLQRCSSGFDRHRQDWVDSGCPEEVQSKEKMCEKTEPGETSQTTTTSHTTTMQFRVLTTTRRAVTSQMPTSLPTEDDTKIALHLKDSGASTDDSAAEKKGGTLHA

B1: anti-mTEM7R scFv#4 (scFv)
scFv: MAQVQLVESGGGLVQPGGSLRLSCAASGFTFSSYEMNWVRQAPGKGLEWVSYISSSGSTIYYADSVKGRFTISRDNSKNTLYLQMNSLRAEDTAVYYCASGDYMDVWGQGTTVTVSSSASGAELGGGGSGGGGSGGGGSTSDIQLTQSPSSLSASVGDRVTITCQASQDISNYLNWYQQKPGKAPKLLMYDASNLETGVPSRFSGSGSGTDFTFTISSLQPEDFATYYCQQSDNLPYTFGQGTKVDIKRS
notes: Human scFv from a naive phage library, expressed in E. coli TG1 (pUC119mycHis / pSYN2) and purified by Ni-NTA, so it carries a His tag; also called clone 4; anti-TEM7R scFv
By Kd is commonly meant a measure of binding affinity in units of concentration. A lower Kd goes with a tighter complex. B1: the Kd worked out at 10 nM.
